Laboratory results published in patent US20250340623A1 (AC IMMUNE, published 2025).
Residue numbers refer to the chain shown, from its start.

Experiments:
[1] = molecular target: T1, monomeric alpha-synuclein (UniProt P37840 1-140); assay: SPR, captured bAb
Description: (§1) Any non-covalently bound antibodies were removed by three successive regenerations of 10 mM Glycine pH 1.7 (GE Healthcare, 28-9950-84). Immobilization levels were evaluated following ethanolamine capping (Bound) and finally following regeneration (Final). Non-covalent immobilization of alpha-synuclein biparatopic antibodies on flow cell 2 of channels 1-8 was performed at a final concentration of 5 μg/mL, diluted in 10 mM sodium acetate pH 5.5 (GE Healthcare, BR-1003-52). Non-covalent immobilization of an isotype control antibody on flow cell 1 of channels 1-8 was performed at a final concentration of 5 μg/mL, diluted in 10 mM sodium acetate pH 5.5 (GE Healthcare, BR-1003-52).
(§2) Binding affinity of alpha-synuclein biparatopic antibodies to monomeric or fibrillar alpha-synuclein species was performed using a single-cycle kinetics method. The instrument was primed with 1×HBS-P+ buffer (10× stock from GE Healthcare, BR-1003-52 diluted in Milli-Q water). Injections of monomeric alpha-synuclein (Boston Biochem, SP-485), increasing in concentration from 0.62-50 nM prepared from serial 2-fold dilutions, were performed with contact times of 300 sec/injection at a flow rate of 30 μL/min. A dissociation phase of 900 sec followed the final 50 nM injection. Regeneration of the sensor to the goat anti-human antibody layer was achieved using 3 regenerations of 10 mM Glycine pH 1.7. […] Regeneration of the sensor to the goat anti-mouse antibody layer was achieved using 3 regenerations of 10 mM Glycine pH 1.7. Results obtained from single-cycle kinetics were evaluated by Biacore 8K evaluation software with 1:1 binding homogenous Langmuir model with a preceeding buffer injection as a blank subtraction. The following kinetic parameters were obtained: on-rate (ka), off-rate (kd), affinity constant (KD, ratio of kd by ka), maximum response (Rmax), and goodness of fit (Chi2).
(§3) Kinetic constants were determined from 1:1 homogenous binding models for all cases.

alpha-synuclein fibrils [2] = molecular target: T2, alpha-synuclein fibrils (UniProt P37840 1-140); assay: SPR, captured bAb
Description: as §1, §2, §3

[3] = molecular target: T1, monomeric alpha-synuclein; assay: SPR, captured bAb; head says nM, kd/ka gives M
Description: as §1, §2, §3

alpha-synuclein fibrils [4] = molecular target: T2, alpha-synuclein fibrils; assay: SPR, captured bAb; head says nM, kd/ka gives M
Description: as §1, §2, §3

B1: ACI-3112H1_3108C10 (bispecific antibody, V domains shown)
VH 1: EVQLQQSGPELVKPGASVKISCKASGYTFSDYFMNWVKQSHGKSLEWIGDINPNNGGSSYIQKFKGKATLTVDKSSTTAYMELRSLTSEDSAVYYCARGSNYAMDSWGQGTSVTVSS
VL 1: DIVMSQSPSSLAVSAGEKVTMSCKSSQSLLNSRTRKNYLAWYQQKPGQSPKLLIYWASTRESGVPDRFTGSGSGTDFTLTISSVQAEDLAVYYCKQSYDLWTFGGGTKLEIK
VH 2: ELQLVESGGGLVRPGGSLKLSCATSGFTFRNYAMSWVRQTPAKRLEWVATISDGGTYTFYSDNVKGRFTISRDNVKNTLYLQMSHLKSEDTAMYYCSRAGSGHWGQGTTLTVSS
VL 2: not shown
notes: biparatopic; Arm A ACI-7079-3112H1-Ab1, Arm B ACI-7079-3108C10-Ab2; engineered constant domains not specified
[1]
  koff: 0.0162 s⁻¹
  kon: 5540 M⁻¹ s⁻¹
alpha-synuclein fibrils [2]
  koff: 0.000472 s⁻¹
  kon: 7650 M⁻¹ s⁻¹
[3]
  Kd: 2920 nM
alpha-synuclein fibrils [4]
  Kd: 61.7 nM

B2: ACI-3108C10_5A12 (bispecific antibody, V domains shown)
VH 1: B1 VH 2
VL 1: not shown
VH 2: QVHLKQSGADLVRPGASVKLSCKASGYTFTDYYINWVKQRPGQGLEWIARIYPGSGNTYYNEKFKGRATLSAEKSSTTAYMQLSSLTSEDSAVYFCVVGYYGAWGQGTTLTVSS
VL 2: DVVMTQTPLSLPVSLGDQASISCRSSQSLVHSNGKTHLHWYLQKPGQSPKLLIYKVSNRFSGVPDRFSGSGSGTDFTLKISRVEAEDLGVYFCSQSTHVPWTFGGGTKLEIK
notes: biparatopic; Arm A ACI-7079-3108C10-Ab2, Arm B ACI-8033-5A12-Ab1; engineered constant domains not specified
[1]
  koff: 8.05 s⁻¹
  kon: 9.13e+08 M⁻¹ s⁻¹
alpha-synuclein fibrils [2]
  koff: 0.000113 s⁻¹
  kon: 10500 M⁻¹ s⁻¹
[3]
  Kd: 8.82 nM
alpha-synuclein fibrils [4]
  Kd: 10.8 nM

B3: ACI-4301H3_3108C10 (bispecific antibody, V domains shown)
VH 1: B1 VH 1 with S30A, S58T, S59T, I61N, T77N, S100R, S106Y
VL 1: B1 VL 1 with W56S, S73F
VH 2: B1 VH 2
VL 2: not shown
notes: biparatopic; Arm A ACI-7088-4301H3-Ab2, Arm B ACI-7079-3108C10-Ab2; engineered constant domains not specified
[1]
  koff: 0.0361 s⁻¹
  kon: 1.04e+06 M⁻¹ s⁻¹
alpha-synuclein fibrils [2]
  koff: 0.000418 s⁻¹
  kon: 8220 M⁻¹ s⁻¹
[3]
  Kd: 34.8 nM
alpha-synuclein fibrils [4]
  Kd: 50.8 nM

B4: ACI-4317A4_1113D10 (bispecific antibody, V domains shown)
VH 1: EVQLQQSGAELVRPGASVKLSCTASGFNIKDDYMHWVKQRPEQGLEWIGWIDPENGDTEYASKFQGKATMTADTSSNTAYLQLSSLTSEDTAVYYCKTWGTTQALFPYWGQGTLVTVSA
VL 1: DIVMTQSQKFMYTSVGDRVSITCKASQNVGNAVGWYQQKAGQSPKLLIHSASNRYTGVPDRFTGTGSGTDFTLTINNMQSEDLADYFCQQYRSYPLTFGAGTKLELK
VH 2: EVQLVESGGGLVQPKGSLKLSCAASGFTFNTYALHWVRQAPGKGLEWVARIRSKSSNYATYYADSVKDRFTISRDDSQSMLYLQMNNLKTEDTGMYYCVRGGVSPFDYWGQGTTLTVSS
VL 2: QIVLTQSPAIMSASPGEKVTMTCSASSSVSYMHWYQQKSGTSPKRWIYDTSKLASGVPARFSGSGSGTSYSLTISSMEAEDSATYYCQQWSNNPPTFGGGTKLEIK
notes: biparatopic; Arm A ACI-7088-4317A4-Ab1, Arm B ACI-7067-1113D10-Ab1; engineered constant domains not specified
[1]
  koff: 0.000675 s⁻¹
  kon: 1.39e+06 M⁻¹ s⁻¹
alpha-synuclein fibrils [2]
  koff: 7.77e-06 s⁻¹
  kon: 49200 M⁻¹ s⁻¹
[3]
  Kd: 0.486 nM
alpha-synuclein fibrils [4]
  Kd: 0.158 nM

B5: ACI-1108H1_4303A3 (bispecific antibody, V domains shown)
VH 1: EVKLVESGGGLVQPGGSMKLSCTASGFTFSDAWMNWVRQSPEKGLEWVAEIRNKAHNHATNYAESVKGRFTISGDDSKSSVYLQMNNLRAEDTGIYYCTIYSFWGQGTLVTVSA
VL 1: SIVMTQTPKFLLVSAGDRVTITCKASQSVTNYVAWYHQKPGQSPKLLIYSASNRYSGVPDRFTGSGYGTDFTFTINTVQTEDLAVYFCQQDYRIPYTFGGGTKLEIK
VH 2: QVQLQQSGAELVRPGASVTLSCKASGYTFTDYEMHWVKQTPVHGLEWIGVIDPETGGAVQNQKFKGKAILTADNSSSTAYMDLRSLTSEDSAVYNCAMGAALRLAYWGQGTLVTVSS
VL 2: DVLMTQTPLSLPVSLGDQASISCRSSQSIVHSNGNSYLEWYLQKPGQSPKLLIYKVSNRFSGVPDRFSGSGSGTDFTLKINRVEAEDLGVYYCFQGSHVPFTFGSGTKLEIK
notes: biparatopic; Arm A ACI-7067-1108H1-Ab1, Arm B ACI-7088-4303A3-Ab1; engineered constant domains not specified
[1]
  koff: 0.00129 s⁻¹
  kon: 1.43e+06 M⁻¹ s⁻¹
alpha-synuclein fibrils [2]
  koff: 1.49e-05 s⁻¹
  kon: 73600 M⁻¹ s⁻¹
[3]
  Kd: 0.903 nM
alpha-synuclein fibrils [4]
  Kd: 0.203 nM
